{"source": "paper PMC9723622", "about": "“PARP1 proximity proteomics reveals interaction partners at stressed replication forks” (Nucleic Acids Research, 2022)", "binders": {"B1": {"name": "His-GFP-tagged TPX2 full-length protein (recombinant) (natural protein, UniProt Q9ULW0 1-747, looked up)", "chain": "MSQVKSSYSYDAPSDFINFSSLDDEGDTQNIDSWFEEKANLENKLLGKNGTGGLFQGKTPLRKANLQQAIVTPLKPVDNTYYKEAEKENLVEQSIPSNACSSLEVEAAISRKTPAQPQRRSLRLSAQKDLEQKEKHHVKMKAKRCATPVIIDEILPSKKMKVSNNKKKPEEEGSAHQDTAEKNASSPEKAKGRHTVPCMPPAKQKFLKSTEEQELEKSMKMQQEVVEMRKKNEEFKKLALAGIGQPVKKSVSQVTKSVDFHFRTDERIKQHPKNQEEYKEVNFTSELRKHPSSPARVTKGCTIVKPFNLSQGKKRTFDETVSTYVPLAQQVEDFHKRTPNRYHLRSKKDDINLLPSKSSVTKICRDPQTPVLQTKHRARAVTCKSTAELEAEELEKLQQYKFKARELDPRILEGGPILPKKPPVKPPTEPIGFDLEIEKRIQERESKKKTEDEHFEFHSRPCPTKILEDVVGVPEKKVLPITVPKSPAFALKNRIRMPTKEDEEEDEPVVIKAQPVPHYGVPFKPQIPEARTVEICPFSFDSRDKERQLQKEKKIKELQKGEVPKFKALPLPHFDTINLPEKKVKNVTQIEPFCLETDRRGALKAQTWKHQLEEELRQQKEAACFKARPNTVISQEPFVPKKEKKSVAEGLSGSLVQEPFQLATEKRAKERQELEKRMAEVEAQKAQQLEEARLQEEEQKKEELARLRRELVHKANPIRKYQGLEIKSSDQPLTVPVSPKFSTRFHC", "notes": "TPX2, full length; also called recombinant TPX2; full-length TPX2; source: recombinant, purified"}, "B2": {"name": "His-GFP-tagged TPX2 N-terminal part (1–254 amino acids), recombinant (domain or fragment, UniProt Q9ULW0 1-254, looked up)", "chain": "MSQVKSSYSYDAPSDFINFSSLDDEGDTQNIDSWFEEKANLENKLLGKNGTGGLFQGKTPLRKANLQQAIVTPLKPVDNTYYKEAEKENLVEQSIPSNACSSLEVEAAISRKTPAQPQRRSLRLSAQKDLEQKEKHHVKMKAKRCATPVIIDEILPSKKMKVSNNKKKPEEEGSAHQDTAEKNASSPEKAKGRHTVPCMPPAKQKFLKSTEEQELEKSMKMQQEVVEMRKKNEEFKKLALAGIGQPVKKSVSQV", "notes": "also called TPX2_254only; source: recombinant, purified"}}, "target": "T1, recombinant PARP1 (human, UniProt P09874 1-1014)", "T1 construct": "PARP1, recombinant; also called purified PARP1; source: recombinant, purified", "T1 sequence (P09874 whole entry)": "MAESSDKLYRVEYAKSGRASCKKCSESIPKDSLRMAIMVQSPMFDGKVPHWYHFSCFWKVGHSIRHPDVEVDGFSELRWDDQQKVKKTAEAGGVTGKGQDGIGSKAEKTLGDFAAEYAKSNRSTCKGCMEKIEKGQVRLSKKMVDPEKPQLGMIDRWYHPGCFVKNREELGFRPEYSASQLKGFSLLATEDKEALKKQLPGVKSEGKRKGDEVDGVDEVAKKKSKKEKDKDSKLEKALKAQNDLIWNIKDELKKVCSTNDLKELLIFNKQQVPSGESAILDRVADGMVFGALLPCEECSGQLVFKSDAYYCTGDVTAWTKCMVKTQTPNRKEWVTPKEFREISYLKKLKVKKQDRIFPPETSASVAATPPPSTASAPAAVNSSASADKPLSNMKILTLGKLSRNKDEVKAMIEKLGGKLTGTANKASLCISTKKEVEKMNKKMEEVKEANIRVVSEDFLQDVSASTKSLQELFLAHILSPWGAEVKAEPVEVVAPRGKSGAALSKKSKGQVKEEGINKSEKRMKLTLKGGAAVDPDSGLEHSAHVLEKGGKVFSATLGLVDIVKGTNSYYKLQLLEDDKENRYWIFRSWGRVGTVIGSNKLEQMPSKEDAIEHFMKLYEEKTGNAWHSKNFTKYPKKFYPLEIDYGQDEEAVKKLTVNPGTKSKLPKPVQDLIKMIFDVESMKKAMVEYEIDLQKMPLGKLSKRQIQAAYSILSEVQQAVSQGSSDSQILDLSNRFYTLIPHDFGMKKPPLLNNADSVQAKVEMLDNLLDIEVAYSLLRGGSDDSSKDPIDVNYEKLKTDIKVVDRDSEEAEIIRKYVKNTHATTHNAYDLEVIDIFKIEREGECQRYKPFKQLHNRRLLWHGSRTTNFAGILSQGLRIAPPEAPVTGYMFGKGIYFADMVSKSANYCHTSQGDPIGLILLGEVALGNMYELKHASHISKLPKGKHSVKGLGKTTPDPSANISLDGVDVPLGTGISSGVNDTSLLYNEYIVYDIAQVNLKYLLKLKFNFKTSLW", "test": "pull-down; His-GFP-TPX2 proteins immobilised on GFP-Trap beads, equimolar recombinant PARP1 added, 2 h 4°C; 20 mM Tris-HCl pH 7.5, 250 mM NaCl, 0.2% glycerol, 0.2% Triton X-100; Western blot", "conditions": "both partners purified"}
{"binder": "B1", "values": [{"measurement": "binding result", "value": "binds"}]}
{"binder": "B2", "values": [{"measurement": "binding result", "value": "binds"}]}
